For assay [1], the target named is T1, HuTL1A mutant R103A (mutant number 4057) (human, UniProt O95150 57-251, limits assumed).
T1 construct: whole entry named
T1 chain: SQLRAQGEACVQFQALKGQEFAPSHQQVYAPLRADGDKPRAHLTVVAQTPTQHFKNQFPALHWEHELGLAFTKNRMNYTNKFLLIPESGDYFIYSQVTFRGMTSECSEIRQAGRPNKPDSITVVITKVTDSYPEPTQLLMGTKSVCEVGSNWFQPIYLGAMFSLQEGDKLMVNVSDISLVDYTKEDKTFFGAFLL
As to the kind of experiment: ELISA on antigen mutant. For orientation: An ELISA detects its analyte on a solid surface through an enzyme-linked reagent.

The target in assay [2] is T2, HuTL1A mutant G124R (mutant number 4059) (human, UniProt O95150 57-251, limits assumed).
T2 construct: whole entry named
T2 chain: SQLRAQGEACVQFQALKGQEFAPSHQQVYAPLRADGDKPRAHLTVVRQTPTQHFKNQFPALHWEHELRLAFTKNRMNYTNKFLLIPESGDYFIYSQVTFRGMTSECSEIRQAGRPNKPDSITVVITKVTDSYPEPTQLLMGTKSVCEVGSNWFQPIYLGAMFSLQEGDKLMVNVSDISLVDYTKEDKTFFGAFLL
As to the kind of experiment: ELISA on antigen mutant.

The next assay addresses T3, FASL (UniProt P48023 134-281, limits assumed).
T3 sequence (looked up): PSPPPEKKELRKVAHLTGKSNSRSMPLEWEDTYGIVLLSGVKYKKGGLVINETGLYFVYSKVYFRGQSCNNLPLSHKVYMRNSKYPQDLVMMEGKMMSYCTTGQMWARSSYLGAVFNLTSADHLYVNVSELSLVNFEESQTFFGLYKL
As to the kind of experiment: ELISA, coated FASL, Ab 25 nM. The method, then:
(§1) In this experiment, ELISA was used to assess the binding ability of monoclonal antibodies to TL1A homologous molecules. Representative members of the TNF ligand superfamily, TNFα, LT-α, LIGHT and FASL, were selected for binding testing. 1 μg/mL of TNFα, LT-α, LIGHT or FASL was coated in a microplate with a carbonate buffer solution at pH=9.6, 100 μL per well, and the microplate was incubated at 4° C. overnight. The microplate was then washed 5 times with PBST, blocked with 300 μL/well of PBS containing 1% BSA, and was incubated at room temperature for 1 hour. After washing 5 times with PBST, about 100 μL each of the M701 monoclonal antibodies and the control antibodies were added to each well, and were incubated at room temperature for 1 hour. After washing 5 times with PBST, 100 μL of HRP-anti-human Fc (Sino Biological) was added to each well, and was incubated at room temperature for 1 hour. After washing 5 times with PBST, 100 μL of colorimetric substrate TMB was added to each well, and color was developed at room temperature for 10 minutes, followed by addition of 1M sulfuric acid to terminate the reaction. OD450 nm was recorded on a microplate reader.

For assay [3], the target named is T4, LT-α (UniProt P01374 35-205).
T4 sequence (looked up): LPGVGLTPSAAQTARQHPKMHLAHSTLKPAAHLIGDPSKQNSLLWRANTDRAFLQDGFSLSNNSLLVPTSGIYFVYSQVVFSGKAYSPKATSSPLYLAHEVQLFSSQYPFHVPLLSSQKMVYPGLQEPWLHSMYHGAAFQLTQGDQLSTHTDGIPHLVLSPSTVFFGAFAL
Briefly: ELISA, coated LT-α, Ab 25 nM. The method, then: as §1

Assay [4] addresses T4, LT-α. Briefly: ELISA, coated LT-α, Ab 100 nM. As to the method:
as §1

Assay [5] addresses T5, human TL1A (HuTL1A) (human, UniProt O95150 57-251, limits assumed, biotin-labelled in some assays (site not stated)).
T5 sequence: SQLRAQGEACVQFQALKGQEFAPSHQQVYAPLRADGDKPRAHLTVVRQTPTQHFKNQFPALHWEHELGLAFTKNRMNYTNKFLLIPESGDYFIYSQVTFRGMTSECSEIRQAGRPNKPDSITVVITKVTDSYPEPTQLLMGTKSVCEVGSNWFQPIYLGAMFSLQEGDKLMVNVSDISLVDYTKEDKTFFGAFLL
Briefly: cell-based or functional assay.

Assay [6] deals with T6, LIGHT (UniProt O43557 74-240, limits assumed). As to the kind of experiment: ELISA, coated LIGHT, Ab 100 nM. As to the method:
as §1

Assay [7] has as its target T7, TNFα (UniProt P01375 77-233). As to the kind of experiment: ELISA, coated TNF-α, Ab 100 nM. The method, then: as §1
The target in assay [8] is T6, LIGHT. As to the kind of experiment: ELISA, coated LIGHT, Ab 6.25 nM. The method, then:
as §1

Assay [9] concerns the target T4, LT-α. Briefly: ELISA, coated LT-α, Ab 0.391 nM. The method, then:
as §1

The target of assay [10] is T6, LIGHT. As to the kind of experiment: ELISA, coated LIGHT, Ab 0.391 nM. The method, then: as §1
The target of assay [11] is T4, LT-α. As to the kind of experiment: ELISA, coated LT-α, Ab 0.000 nM (blank). The method, then: as §1
Assay [12] deals with T7, TNFα. As to the kind of experiment: ELISA, coated TNF-α, Ab 0.000 nM (blank). The method, then: as §1
Assay [13] deals with T5, human TL1A (HuTL1A). As to the kind of experiment: DLS, antigen and antibody mixed in equal moles. The method, then: 60 μM antigen and antibody was mixed in equal moles, incubated at room temperature for 30 minutes, and then the molecular size was detected using UNCLE or SEC.
The target of assay [14] is T5, human TL1A (HuTL1A). Briefly: ELISA: biotin-HuTL1A on streptavidin plate, antibody diluted at pH 7.4, HRP-anti-human Fc, OD450. As to the method: Corresponding antibodies were added to specific wells, and the antibodies were diluted with sodium dihydrogen phosphate-citrate buffer at pH 7.4, pH 6.0, pH 5.8, or pH 5.6. Binding assay was carried out at room temperature for 30 minutes. After the incubation, the excess antibodies were removed and the wells were washed by PBST. HRP-anti-Human Fc (Sino Biological) was then added into each well and incubated for 30 minutes to detect the bound antibody. The substrate TMB was finally added to develop color for 5-10 minutes. The color development reaction was terminated with 1M sulfuric acid. OD450 nm was recorded on a microplate reader, and the data were processed and fitted by 4 parameter logistic regression.

T7 sequence (P01375 77-233 limits assumed): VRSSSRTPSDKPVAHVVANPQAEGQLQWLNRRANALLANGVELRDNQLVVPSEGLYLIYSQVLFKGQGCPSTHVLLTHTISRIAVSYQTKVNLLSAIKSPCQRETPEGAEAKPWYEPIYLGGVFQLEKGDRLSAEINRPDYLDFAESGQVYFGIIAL
T6 sequence (O43557 74-240 limits assumed): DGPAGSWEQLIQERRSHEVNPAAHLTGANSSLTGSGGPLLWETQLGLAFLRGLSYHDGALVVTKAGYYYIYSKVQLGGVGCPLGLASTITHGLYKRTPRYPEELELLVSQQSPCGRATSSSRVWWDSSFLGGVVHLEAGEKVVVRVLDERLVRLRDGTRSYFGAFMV

B1: M701-3966 (antibody, human IgG1, kappa, L234A L235A, V domains shown)
VH: ELQLQESGPGLVKPSETLSLTCAVSGVSFSDYHWAWIRQPPGKGLEWIGDINHRGHTNYNPSLKSRVTVSIDTSKNQFSLKLSSVTAADTAVYFCARDFPNFIFDYWGQGTLVTVSS
VL: DIQLTQSPGTLSLSPGERATLSCRASQSVSSYLAWYQQKPGQAPRLLIYGASKRATGIPDRFSGSGSGTDFTLTISRLEPEDFAVYYCQQYGDSPLTFGQGTKVEIKR
notes: Fc-engineered IgG1
For B1, the binding result in [1] and in assay [2] was “no binding” throughout. Further, the OD450 nm is 0.0662 with FASL; 0.0639 with LT-α [3]; 0.0709 with LT-α [4]; 0.0876 with LIGHT [6]; 0.0787 with TNFα [7]; 0.0568 with LIGHT [8]. Also, the OD450 nm with LT-α [9] was determined as 0.0604; in the assay with LIGHT [10] it was 0.0558; with LT-α [11] it was 0.0704; with TNFα [12], 0.0706. Moreover, the “IC50 (read off the curve); SEAP reporter in HEK293T/DR3-NFκB cells with soluble TL1A, OD655” value with human TL1A (HuTL1A) [5] was roughly 1 nM. Also, the “Ave Z-dia (nm) of the antigen-antibody complex” value with human TL1A (HuTL1A) [13] is 18.6 nm. In addition, the half-maximal effective concentration (EC50 (read off the curve)) with human TL1A (HuTL1A) [14] was roughly 0.1 nM.

B2: M701-4007 (antibody, human IgG1, kappa, L234A L235A, V domains shown)
VH: ELQLQESGPGLVKPSETLSLTCAVSGVSFSDYHWAWIRQPPGKGLEWIGDINHRGHTNYNPSLKSRVTVSIDTSKNQFSLKLSSVTAADTAVYFCARDFPNFIFDFWGQGTLVTVSS
VL: DIQLTQSPGTLSLSPGERATLSCRASQSVSTYLAWYQQKPGQAPRLLIYGASKRATGIPDRFSGSGSGTDFTLTISRLEPEDFAVYYCQQYGDSPLTFGQGTKVEIKR
notes: Fc-engineered IgG1
For the molecule B2, the binding result in [1] and in assay [2] was “no binding” each time. In addition, the OD450 nm with FASL was determined as 0.0634; with LT-α [3], 0.0628; in the assay with LT-α [4], 0.0706; with LIGHT [6] it was 0.0853; with TNFα [7], 0.079; in the assay with LIGHT [8], 0.0542. The OD450 nm in the assay with LT-α [9] stood at 0.0576; with LIGHT [10], 0.0534; in the assay with LT-α [11], 0.0662; with TNFα [12] it was 0.0762. In addition, the “IC50 (read off the curve); SEAP reporter in HEK293T/DR3-NFκB cells with soluble TL1A, OD655” value with human TL1A (HuTL1A) [5] is roughly 1 nM. Also, the “Ave Z-dia (nm) of the antigen-antibody complex” value with human TL1A (HuTL1A) [13] came to 18.7 nm. For the same molecule, the “EC50 (read off the curve)” value in the assay with human TL1A (HuTL1A) [14] is roughly 0.1 nM.

Broadly, the EC50 (read off the curve) is the concentration needed to bring the measured effect to its halfway point.

The values above are taken from patent US20250313644A1 (FUTUREGEN BIOPHARMACEUTICAL BEIJING, published 2025).
